Test results as given in ChEMBL document CHEMBL2074354, “Chlorambucil-taurocholate is transported by bile acid carriers expressed in human hepatocellular carcinomas” (Gastroenterology, 1997).

Substrate: [H][C@]12CC[C@]3([H])[C@]([H])(C[C@H](O)[C@]4(C)C(C(C)CCC(=O)NCCS(=O)(=O)O)CC[C@@]34[H])[C@@]1(C)CC[C@H](OCCNC(=O)CCCc1ccc(N(CCCl)CCCl)cc1)C2
Assay: TP_TRANSPORTER: uptake in Xenopus laevis oocytes
Assay type: functional, cell-based, Oocyte

B1: Hepatic sodium/bile acid cotransporter (Homo sapiens) (protein)
chain: MEAHNASAPFNFTLPPNFGKRPTDLALSVILVFMLFFIMLSLGCTMEFSKIKAHLWKPKGLAIALVAQYGIMPLTAFVLGKVFRLKNIEALAILVCGCSPGGNLSNVFSLAMKGDMNLSIVMTTCSTFCALGMMPLLLYIYSRGIYDGDLKDKVPYKGIVISLVLVLIPCTIGIVLKSKRPQYMRYVIKGGMIIILLCSVAVTVLSAINVGKSIMFAMTPLLIATSSLMPFIGFLLGYVLSALFCLNGRCRRTVSMETGCQNVQLCSTILNVAFPPEVIGPLFFFPLLYMIFQLGEGLLLIAIFWCYEKFKTPKDKTKMIYTAATTEETIPGALGNGTYKGEDCSPCTA
B1 showed a Km of 11 µM.
